B1: 6A7 (antibody, V domains shown)
VH: EVQLKESGAELVRPGASVKVSCKASGYSFTSYWMNWVKQRPGQGLEWIGMIHPSDSETKLNQKFRDRASLTVDKSSSTAYMQLSSPTSEDSAVYYCTINYESFYYAMDYWGQGTTVTVSS
VL: DIVMTQSPASLAVSLGQRATISCRASKSVSTSGYSYMHWYQQKPGQPPKLLLYLASNLESGVPARFSGSGSGADFTLNIHPVEEEDAATYYCLHSRELPYTFGGGTKLEIK
notes: murine hybridoma mAb
B2: 3C11 (antibody, V domains shown)
VH: EVQLQQSGTVLARPGASVKMSCKASGYNFISYWLHWIKQRPGQGLEWIGGIYPGNTDTTYNQKFKGKAKVTAVTSATTAYMELSSLTNEDSAVYYCIRYDYDRGMDYWGQGTTVTVSS
VL: DIQMTQSPSSFSVSLGDRVTITCRASEDIYYRLAWYQQKPGNAPRLLISGATALETGVPSRFSGSGSGKDYTLSITSLQTEDVATYYCQHYWNIPWTFGGGTKLEIK
notes: murine hybridoma mAb
B3: 3B12H5 (antibody, V domains shown)
VH: EVQLQQSGTVLARPGASVKMSCKASGYSFTIYWVHWVKQRPGQGLEWIGAVYPGNDDTSYNQNFKGKAKLTAVTSATTAYMELSSLTIDDSAVYYCTRHTYDEVFDYWGQGTTVTVSS
VL: B2 VL with Q3V, F11L, R24K, A51G, A53N, T56A, V58I, T85I, I94T
notes: murine hybridoma mAb; also called 3B12HS
B4: G10F6 (antibody, V domains shown)
VH: EVKLVESGPGILQPSQTLSLTCSFSGFSLSTSGMGVSWVRQPSGKGLEWLAHIYWDDDKRYNPSLKGRLTISKDTPRNQVFLEITSVDTTDTATYYCARVPGNWDEDAMDYWGQGTTVTVSS
VL: DIQMTQSPLSLPVSLGDQASISCRSSQNIVHTNGNTYLEWYLQKVGQSPKLLIYKVSNRFSGVPDRFSGSGSGTDFTLKISRVEAEDLGVYYCFQGSHVPYTFGGGTKLEIK
notes: murine hybridoma mAb
B5: 8E5 (antibody, V domains shown)
VH: EVQLKESGPELKKPGETVKISCKASGYTLTDFSMHWLKQAPGKGLKWMGWINTETGAPTYADDFKGRFALSLDTSANTAYLQINNLKNEDTATYFCSRGRDYDPHFDYWGQGTTVTVSS
VL: EIVLTQSPATLSVTPGDRVSLSCRASQSISDFLHWYQQRSHESPRLLIKYASQSISGIPSRFGGSGSGSDFTLNINTVEPEDVGMYYCQSAHSFPYTFGGGTKLEIK
notes: murine hybridoma mAb; also called 8ES
B6: 12E6 (antibody, V domains shown)
VH: EVQLKESGPGILQPSQTLSLTCSFSGFSLSTSGMGVGWIRQPSGKGLEWLAHIWWDDVKLYNPALKSRLTISKETSNNQVFLKIASVDAADTATYYCARIDHGYGSNYWDFDVWGAGTTVTVSS
VL: DIVMTQAAPSVPVTPGGSVSISCRSTKSLLHSDGKTYLYWFLQRPGQSPQLLIYRMSNLASGVPDRFSGSGSGTAFTLRISRVEAEDVGVYYCMQHLEYPFTFGSGTKLEIK
notes: murine hybridoma mAb
B7: 1CP-124 (antibody, human IgG1, kappa, V domains shown)
VH: QVQLVQSGAEVKKPGASVKVSCKASGYNFISYWLHWVRQAPGQGLEWMGGIYPGNTDTTYNQKFKGRVTMTRDTSTSTVYMELSSLRSEDTAVYYCIRYDYDRGMDYWGQGTLVTVSS
VL: DIQMTQSPSSLSASVGDRVTITCRASEDIYYRLAWYQQKPGKAPKLLISGATALETGVPSRFSGSGSGKDYTFTISSLQPEDIATYYCQHYWNIPWTFGQGTKVEIKR
notes: humanized 3C11, human IgG1 kappa
B8: 1CP-129 (antibody, human IgG1, kappa, V domains shown)
VH: B7 VH with R72A
VL: B7 VL with F73L
notes: as for B7
B9: 1CP-125 (antibody, human IgG1, kappa, V domains shown)
VH: B7 VH with R72A
VL: B7 VL
notes: as for B7
B10: 1CP-128 (antibody, human IgG1, kappa, V domains shown)
VH: B7 VH
VL: B7 VL with F73L
notes: as for B7
B11: 1CP-152 (antibody, human IgG1, kappa, V domains shown)
VH: EVQLVESGGGLVQPGRSLRLSCTTSGLTFTHYHMSWVRQAPGKGLEWVAIIRNKAYGYTTDYSASVRGRFTISRDDSKSILYLQMNSLKTEDTAVYYCVREGGYGYDGTFAYWGQGTLVTVSS
VL: DIQMTQSPSSLSASVGDRVTITCRASESVDNYGISFMNWFQQKPGQAPKLLIYAASNQGSGVPSRFSGSGSGTDFTLTISSMQPEDFATYYCQQSKEVPRTFGGGTKVEIKR
notes: humanized 8C9, human IgG1 kappa
B12: 1CP-157 (antibody, human IgG1, kappa, V domains shown)
VH: B11 VH with L45P
VL: B11 VL with A47P
notes: as for B11
B13: 1CP-117 (antibody, human IgG1, kappa, V domains shown)
VH: QVQLVQSGSELKKPGASVKVSCKASGYTLTDFSMHWVRQAPGQGLEWMGWINTETGAPTYADDFKGRFVLSLDTSVSTAYLQISSLKAEDTAVYYCSRGRDYDPHFDYWGQGTLVTVSS
VL: EIVLTQSPATLSLSPGERATLSCRASQSISDFLHWYQQKPGQSPRLLIKYASQSISGIPARFSGSGSGSDFTLTISSVEPEDFAVYYCQSAHSFPYTFGQGTKLEIKR
notes: humanized 8E5, human IgG1 kappa
B14: 1CP-121 (antibody, human IgG1, kappa, V domains shown)
VH: B13 VH
VL: B13 VL with P40S
notes: as for B13

The term EC50 denotes the concentration at which the effect is half-maximal. A high value points to a less potent agent. A word on the Kd: it is the equilibrium constant for the complex coming apart. Higher therefore signals a looser complex. What is called koff is the rate constant with which the complex falls apart. A low value points to a long-lived complex. For orientation: kon means a measure of how fast the partners come together.

Positions count from the first letter of the chain named.

In the first experiment the target is T1, HuCDCP1-C (human, UniProt Q9H5V8 30-667).
T1 construct: range 30-667; expressed in HEK-293T, purified by Fc/his tag; also called human CDCP1-C; full-length extracellular domain of human CDCP1; not shown: Fc or his tag
T1 sequence (looked up): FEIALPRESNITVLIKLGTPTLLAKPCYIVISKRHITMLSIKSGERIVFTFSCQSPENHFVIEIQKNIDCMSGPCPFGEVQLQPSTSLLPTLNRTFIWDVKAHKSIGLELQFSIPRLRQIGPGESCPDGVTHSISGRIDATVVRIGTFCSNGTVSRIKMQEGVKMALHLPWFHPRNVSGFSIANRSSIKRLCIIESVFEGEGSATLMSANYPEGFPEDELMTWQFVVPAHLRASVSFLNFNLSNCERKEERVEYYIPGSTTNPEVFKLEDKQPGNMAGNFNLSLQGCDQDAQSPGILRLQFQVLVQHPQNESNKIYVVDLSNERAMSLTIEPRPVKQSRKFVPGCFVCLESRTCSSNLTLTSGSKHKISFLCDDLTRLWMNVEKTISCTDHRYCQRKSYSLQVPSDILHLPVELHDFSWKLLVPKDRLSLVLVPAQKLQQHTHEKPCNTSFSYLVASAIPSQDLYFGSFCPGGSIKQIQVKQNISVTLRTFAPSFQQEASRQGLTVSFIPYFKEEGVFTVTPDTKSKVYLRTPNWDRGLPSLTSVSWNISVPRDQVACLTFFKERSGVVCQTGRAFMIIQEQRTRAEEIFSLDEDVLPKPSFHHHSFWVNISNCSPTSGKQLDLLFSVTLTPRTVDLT
Put plainly: SPR (Caterra or Biacore), antigen immobilized. (In general: Surface plasmon resonance follows binding to a sensor surface in real time, without labels.)
B1 displayed an EC50 of 9.65 nM.

B2: the EC50 came to 3.96 nM.

As for B3, the EC50 was 0.723 nM.

As for B4, the EC50 is 5.63 nM.

Consider B5, for which the midpoint of the response, the EC50, lay at 0.105 nM.

For the molecule B6, the EC50 was found to be 0.0634 nM.

The target in another experiment is T2, RatCDCP1 (rat, UniProt D3ZVA1 29-666).
T2 construct: extracellular domain; not shown: Fc or his tag
T2 sequence: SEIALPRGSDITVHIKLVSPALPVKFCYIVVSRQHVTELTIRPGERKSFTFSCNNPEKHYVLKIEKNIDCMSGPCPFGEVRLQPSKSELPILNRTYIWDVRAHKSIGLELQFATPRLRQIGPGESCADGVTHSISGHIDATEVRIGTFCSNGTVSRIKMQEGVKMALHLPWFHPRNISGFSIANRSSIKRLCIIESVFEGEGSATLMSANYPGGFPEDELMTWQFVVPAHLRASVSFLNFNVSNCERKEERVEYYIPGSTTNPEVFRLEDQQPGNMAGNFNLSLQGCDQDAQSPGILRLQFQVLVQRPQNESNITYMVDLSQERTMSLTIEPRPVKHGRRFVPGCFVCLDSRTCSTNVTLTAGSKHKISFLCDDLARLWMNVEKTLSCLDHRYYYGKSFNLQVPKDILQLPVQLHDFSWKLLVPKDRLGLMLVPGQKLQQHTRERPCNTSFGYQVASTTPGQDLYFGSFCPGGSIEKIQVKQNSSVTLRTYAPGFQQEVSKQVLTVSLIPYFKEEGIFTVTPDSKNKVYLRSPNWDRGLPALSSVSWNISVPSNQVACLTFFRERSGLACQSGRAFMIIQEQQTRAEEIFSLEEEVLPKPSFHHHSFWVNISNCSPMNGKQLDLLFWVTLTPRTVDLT
Put plainly: SPR (Caterra or Biacore), antigen immobilized.
The molecule B1 showed an EC50 of 91.4 nM.

B2: the binding result is listed as “no binding (tested: 150 nM highest concentration)”.

For B3, the binding result was “no binding (tested: 150 nM highest concentration)”.

In the case of B4, the binding result was “no binding (tested: 150 nM highest concentration)”.

B5 gave an EC50 of 50.5 nM.

Take B6: the binding result is given as “no binding (tested: 150 nM highest concentration)”.

The target of the next experiment is T3, CynoCDCP1 (Macaca fascicularis, UniProt A0A2K5VLA8 30-667).
T3 construct: extracellular domain; also called Macaca fascicularis CDCP1; monkey CDCP1; not shown: Fc or his tag
T3 sequence: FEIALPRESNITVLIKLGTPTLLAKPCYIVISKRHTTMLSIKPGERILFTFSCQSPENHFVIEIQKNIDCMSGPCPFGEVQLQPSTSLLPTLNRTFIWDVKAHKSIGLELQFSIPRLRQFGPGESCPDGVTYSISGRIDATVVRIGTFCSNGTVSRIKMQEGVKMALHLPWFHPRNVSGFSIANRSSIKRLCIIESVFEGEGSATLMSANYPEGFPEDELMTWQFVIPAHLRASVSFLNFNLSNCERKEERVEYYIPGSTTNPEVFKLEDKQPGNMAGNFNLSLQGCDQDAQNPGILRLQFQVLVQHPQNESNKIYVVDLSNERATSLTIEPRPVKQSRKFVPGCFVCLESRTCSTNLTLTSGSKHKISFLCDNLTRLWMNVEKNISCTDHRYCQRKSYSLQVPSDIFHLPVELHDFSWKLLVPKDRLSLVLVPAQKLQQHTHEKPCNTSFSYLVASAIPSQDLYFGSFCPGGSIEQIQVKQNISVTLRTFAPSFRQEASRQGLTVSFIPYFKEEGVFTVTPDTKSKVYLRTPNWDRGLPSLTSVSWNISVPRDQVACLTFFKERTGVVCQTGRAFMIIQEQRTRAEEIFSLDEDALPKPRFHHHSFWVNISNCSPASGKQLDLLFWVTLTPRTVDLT
Put plainly: SPR (Caterra or Biacore), antigen immobilized.
Molecule B1 returned an EC50 of 9.96 nM.

B2 gave an EC50 of 23.6 nM.

With B3, the half-maximal effective concentration (EC50) came to 4.5 nM.

For B4, the EC50 was determined as 4.47 nM.

With B5, the EC50 was 0.0516 nM.

In turn, B6 came in with an EC50 of 1.45 nM.

The next experiment concerns the target T1, HuCDCP1-C. Briefly: SPR (Caterra), antigen immobilized. The procedure:
The humanized anti-CDCP1 antibodies obtained from Example 11 were subjected to gene cloning, constructed into pTT5 expression vector for a small amount of expression in CHO cells (Expi-CHOS: Gibco A29127), and purified with an Fc affinity column (AT Protein A Diamond Plus. No. AA402312). Antibody purity was analyzed by HPLC and determined by Nanodrop. High-throughput affinity assay was carried out for a small amount of antibodies by Caterra.
B7 gave a Kd of 0.0993 nM, an off-rate (koff) of 1.47e-05 s⁻¹ and a kon of 148000 M⁻¹ s⁻¹.

Molecule B8 gave a Kd of no more than 0.0623 nM, a koff of no more than 1e-05 s⁻¹ and a kon of 160000 M⁻¹ s⁻¹.

Molecule B9 displayed a Kd of 0.144 nM, a koff of 2.17e-05 s⁻¹ and a kon of 151000 M⁻¹ s⁻¹.

Consider B10, for which the Kd was no more than 0.0717 nM, the koff was no more than 1e-05 s⁻¹ and the kon is 139000 M⁻¹ s⁻¹.

B11 yielded a Kd of 4.09 nM, a koff of 0.000465 s⁻¹ and a kon of 114000 M⁻¹ s⁻¹.

As for B12, the Kd was 3.14 nM, the koff came out at 0.000385 s⁻¹ and the kon came to 122000 M⁻¹ s⁻¹.

As to B13, binding was characterised by a dissociation constant (Kd) of 0.259 nM, the koff was determined as 3.93e-05 s⁻¹ and the kon is 152000 M⁻¹ s⁻¹.

On to B14, for which the Kd is no more than 0.0675 nM, the koff is no more than 1e-05 s⁻¹ and the kon turned out to be 148000 M⁻¹ s⁻¹.

The record behind these values is US20260250410A1 (SICHUAN HUIYU PHARMACEUTICAL, published 2026).
